Drawing on the RNAGym collection of RNA variant scans (doi:10.7554/elife.80360), this text covers self-cleavage for 39 variants.

B1: CPEB3 Ribozyme (parent)
chain: GGGGGCCACAGCAGAAGCGUUCACGUCGCGGCCCCUGUCAGAUUCUGGUGAAUCUGCGAAUUCUGCUGU

In this data set the parent is B1. The data set can be described thus: self-cleavage, relative activity (ratio to wild type); higher = more cleavage; co-transcriptional.
For the variant GGGGGCCACAGCCGAAGCGUUCACGUCCCGGCCCCUGUCAGAUUCUGGUGAAUCUGCGAAUUCUGCUGU, the self-cleavage came out at 0.149. For GGGGGCCACAGCCGAAGCGUUCACGUCUCGGCCCCUGUCAGAUUCUGGUGAAUCUGCGAAUUCUGCUGU, the self-cleavage amounted to 0.116. As for GGGGGCCACAGCCGAAGCGUUCACGUCACGGCCCCUGUCAGAUUCUGGUGAAUCUGCGAAUUCUGCUGU, the figure is 0.108; as for GGGGGCCACAGCCGAAACGUUCACGUCGCGGCCCCUGUCAGAUUCUGGUGAAUCUGCGAAUUCUGCUGU, 0.0886.

GGGGGCCACAGCCGAACCGUUCACGUCGCGGCCCCUGUCAGAUUCUGGUGAAUCUGCGAAUUCUGCUGU: the self-cleavage was determined as 0.122. As for GGGGGCCACAGUAGAAGCGUUCACGUCGCGGCCCCUGUCAGAUUCUGGUGAAUCCGCGAAUUCUGCUGU, the figure is 0.83. As for GGGGGCCACAGUAGAAGCGUUCACGUCGCGGCCCCUGUCAGAUUCUGGUGAAUCGGCGAAUUCUGCUGU, the figure is 0.616; as for GGGGGCCACAGCCGAAGCGUUUACGUCGCGGCCCCUGUCAGAUUCUGGUGAAUCUGCGAAUUCUGCUGU, 0.209; as for GGGGGCCACAGCCGAAGCGUUCACGUCGCGGCCCCUGUCAGAUUCUGGUGAAUCUGCGAAUUCUGUUGU, 0.465. The figure for GGGGGCCACAGCCGAAGCGUUCACGUCGCGGCCCCUGUCAGAUUCUGGUGAAUCUGCGAAUUCUGAUGU is 0.48; for GGGGGCCACAGCCGAAGCGUUCACGUCGCGGCCCCUGUCAGAUUCUGGUGAAUCUGCGAAUUCUGGUGU it is 0.862; for GGGGGCCACAGUAGAAGCGUUCACGUCGCGGCCCCUGUCAGAUUCUGGUGAAUCUGCGAAUUCGGCUGU it is 0.757.

Consider GGGGGCCACAGUAGAAGCGUUCACGUCGCGGCCCCUGUCAGAUUCUGGUGAAUCUGCGAAUUCAGCUGU, for which the self-cleavage was 0.697. The figure for GGGGGCCACAGUAGAAGCGUUCACGUCGCGGCCCCUGUCAGAUUCUGGUGAAUCUGCGAAUUCCGCUGU is 0.785; for GGGGGCCACAGCCGAAGCGUUCACGUUGCGGCCCCUGUCAGAUUCUGGUGAAUCUGCGAAUUCUGCUGU it is 0.15; for GGGGGCCACAGCCGAAGCGUUCACGUAGCGGCCCCUGUCAGAUUCUGGUGAAUCUGCGAAUUCUGCUGU it is 0.145. The figure for GGGGGCCACAGCCGAAGCGUUCACGUCGCGGCACCUGUCAGAUUCUGGUGAAUCUGCGAAUUCUGCUGU is 0.593. For GGGGGCCACAGCCGAAGCGUUCACGUCGCGGCCCCUGUCAGAUUGUGGUGAAUCUGCGAAUUCUGCUGU, the self-cleavage is 0.835. Regarding GGGGGCCACAGCCGAAGCGUUCACGUCGCGGCCCCUGUCAGAUUAUGGUGAAUCUGCGAAUUCUGCUGU, the self-cleavage came out at 0.761. The figure for GGGGGCCACAGCCGAAGCGUUCACGUCGCGGCCCCUGUCAGAUUCUGGUGACUCUGCGAAUUCUGCUGU is 0.77; for GGGGGCCACAGCCGAAGCGUUCACGUCGCGGCCCCUGUCAGAUUCUGGUGAUUCUGCGAAUUCUGCUGU it is 0.837. The figure for GGGGGCCACAGCCGAAGCGUUCACGUCGCGGCCCCUGUCAGAUUCUGGUGAAUCUGCGAGUUCUGCUGU is 0.384; for GGGGGCCACAGCCGAAGCGUUCACGUCGCGGCCCCUGUCAGAUUCUGGUGAAUCUGCGACUUCUGCUGU it is 0.301. As for GGGGGCCACAGCCGAAGCGUUCACGUCGCGGCCCCUGUCAGAUUCUGGUGAAUGUGCGAAUUCUGCUGU, the figure is 0.45.

With GGGGGCCACAGCCGAAGCGUUCACGUCGCGGCCCCUGUCAGAUUCUGGUGAAUAUGCGAAUUCUGCUGU, the self-cleavage was 0.414. As for GGGGGCCACAGCCGAAGCGUUCACGUCGCGGCCCCUGUCAGAUUCUGGUGAAUUUGCGAAUUCUGCUGU, the self-cleavage was found to be 0.773.

Regarding GGGGGCCACAGCCGAAGCGUUCACGUCGCGGACCCUGUCAGAUUCUGGUGAAUCUGCGAAUUCUGCUGU, the self-cleavage turned out to be 0.55. Regarding GGGGGCCACAGCCGAAGCGUUCUCGUCGCGGCCCCUGUCAGAUUCUGGUGAAUCUGCGAAUUCUGCUGU, the self-cleavage stood at 0.788. Regarding GGGGGCCACAGCCGAAGCGUUCGCGUCGCGGCCCCUGUCAGAUUCUGGUGAAUCUGCGAAUUCUGCUGU, the self-cleavage was determined as 0.507.

On to GGGGGCCACAGCCGAAGCGUUCACGUCGCGGCCCCUGUCAGAUUCUGGUGAAUCUGCGAAUUAUGCUGU, for which the self-cleavage worked out at 0.467.

Regarding GGGGGCCACAGCCGAAGCGUUCACGUCGCGGCCCCUGUCAGAUUCUGGUGAAUCUGCGAAUUGUGCUGU, the self-cleavage worked out at 0.366. The figure for GGGGGCCACAGCCGAAGCGUUCACGUCGCGGCCCCUGUCAGAUUCUGGUGAAUCUGCGAAUUUUGCUGU is 0.732.

GGGGGCCACAGUAGAAGCGUUCACGUCGCGGCCCCUGUCAGAUUCUGGUGAAUCUGCGAAAUCUGCUGU: the self-cleavage came out at 0.822. The figure for GGGGGCCACAGCCGAAGCGUUCACGUCGCGGCCCGUGUCAGAUUCUGGUGAAUCUGCGAAUUCUGCUGU is 0.323. The figure for GGGGGCCACAGCCGAAGCGUUCACGUCGCGGCCCUUGUCAGAUUCUGGUGAAUCUGCGAAUUCUGCUGU is 0.751.

On to GGGGGCCACAGCCGAAGCGUUCACGUCGCGGCCCCUGUCAGAUUCUGGUGAAUCUGCGCAUUCUGCUGU, for which the self-cleavage came out at 0.395. The figure for GGGGGCCACAGCCGAAGCGUUCACGUCGCGGCCCCUGUCAGAUUCUGGUGAAUCUGCGUAUUCUGCUGU is 0.479; for GGGGGCCACAGCCGAAGCGUUCACGUCGCGGCCCCUGUCAGAUUCUGGUGAAUCUGCGGAUUCUGCUGU it is 0.794; for GGGGGCCACAGUAGAAGCGUUCACGUCGCGGCCCCUGUCAGAUUCUGGUGAAUCUGCGAAUUCUGCAGU it is 0.948.
